Substitutions are numbered along the chain they refer to. Names may count otherwise.
B1: H237-MB341/MRAL-k0 (antibody, mouse IgG1, kappa)
heavy: QVQLQESGPGLVKPSETLSLTCAVSGHSISHDHAWSWVRQPPGEGLEWIGFISYSGITNYNPSLQGRVTISRDNSKNTLYLQMNSLRAEDTAVYYCARSLARTTAMDYWGEGTLVTVSSAKTTPPSVYPLAPGSAAQTNSMVTLGCLVKGYFPEPVTVTWNSGSLSSGVHTFPAVLQSDLYTLSSSVTVPSSTWPSETVTCNVAHPASSTKVDKKIVPRDCGCKPCICEDWEVEDVFIFPPKPKDVLTITLTPKVTCVVVDISKDDPEVQFSWFVDDVEVHTAQTQPREEQFNSTFRSVSELPIMHQDWLNGKEFKCRVNSAAFPAPIEKTISKTKGRPKAPQVYTIPPPKEQMAKDKVSLTCMITDFFPEDITVEWQWNGQPAENYKNTQPIMDTDGSYFVYSKLNVQKSNWEAGNTFTCSVLHEGLHNHHTEKSLSHSPGK
light: not shown
notes: copies: 2 + 2
B2: H237-MB399/MRAL-k0 (antibody, mouse IgG1, kappa)
heavy: B1 heavy with D230W, W231A
light: not shown
notes: copies: 2 + 2
B3: H237-MB394/MRAL-k0 (antibody)
heavy: B1 heavy with D230T, W231A
light: not shown
notes: Printed M8394, read as MB394; also called M8394; copies: 2 + 2
B4: H237-MB381/MRAL-k0 (antibody, mouse IgG1, kappa)
heavy: B1 heavy with W231N
light: not shown
notes: copies: 2 + 2
B5: H237-MB367/MRAL-k0 (antibody, mouse IgG1, kappa)
heavy: B1 heavy with D230A, W231N
light: not shown
notes: mIgG1 with T230E/V231A/P232N/S238E/S239D (EU); copies: 2 + 2
B6: H237-MB380/MRAL-k0 (antibody, mouse IgG1, kappa)
heavy: B1 heavy with W231A
light: not shown
notes: copies: 2 + 2
B7: H237-MB384/MRAL-k0 (antibody, mouse IgG1, kappa)
heavy: B1 heavy with D230N, W231A
light: not shown
notes: copies: 2 + 2
B8: H237-MB398/MRAL-k0 (antibody, mouse IgG1, kappa)
heavy: B1 heavy with D230W, W231P
light: not shown
notes: copies: 2 + 2
B9: H237-MB383/MRAL-k0 (antibody, mouse IgG1, kappa)
heavy: B1 heavy with D230N, W231P
light: not shown
notes: copies: 2 + 2
B10: H237-MB385/MRAL-k0 (antibody, mouse IgG1, kappa)
heavy: B1 heavy with D230N, W231N
light: not shown
notes: copies: 2 + 2
B11: H237-MB386/MRAL-k0 (antibody, mouse IgG1, kappa)
heavy: B1 heavy with D230N
light: not shown
notes: copies: 2 + 2
B12: H237-MB393/MRAL-k0 (antibody, mouse IgG1, kappa)
heavy: B1 heavy with D230T, W231P
light: not shown
notes: copies: 2 + 2
B13: H237-MB395/MRAL-k0 (antibody, mouse IgG1, kappa)
heavy: B1 heavy with D230T, W231N
light: not shown
notes: copies: 2 + 2
B14: H237-MB378/MRAL-k0 (antibody, mouse IgG1, kappa)
heavy: B1 heavy with D230V, W231N
light: not shown
notes: copies: 2 + 2
B15: H237-MB377/MRAL-k0 (antibody, mouse IgG1, kappa)
heavy: B1 heavy with D230V, W231A
light: not shown
notes: copies: 2 + 2
B16: H237-MB396/MRAL-k0 (antibody, mouse IgG1, kappa)
heavy: B1 heavy with D230T
light: not shown
notes: copies: 2 + 2
B17: H237-MB391/MRAL-k0 (antibody, mouse IgG1, kappa)
heavy: B1 heavy with D230P
light: not shown
notes: copies: 2 + 2
B18: H237-MB392/MRAL-k0 (antibody, mouse IgG1, kappa)
heavy: B1 heavy with D230P, W231Y
light: not shown
notes: copies: 2 + 2
B19: H237-MB388/MRAL-k0 (antibody, mouse IgG1, kappa)
heavy: B1 heavy with D230P, W231P
light: not shown
notes: copies: 2 + 2
B20: H237-MB358/MRAL-k0 (antibody, mouse IgG1, kappa)
heavy: B1 heavy with D230A, W231A
light: not shown
notes: copies: 2 + 2

Tests used:
[1] = target: T1, mouse FcγRII extracellular domain with C-terminal His tag (mouse, UniProt P08101 30-210); assay: SPR Biacore T200
T1 construct: Made on the basis of NCBI NP-034317.1; also called mFcγRII; mFcgRII
T1 sequence: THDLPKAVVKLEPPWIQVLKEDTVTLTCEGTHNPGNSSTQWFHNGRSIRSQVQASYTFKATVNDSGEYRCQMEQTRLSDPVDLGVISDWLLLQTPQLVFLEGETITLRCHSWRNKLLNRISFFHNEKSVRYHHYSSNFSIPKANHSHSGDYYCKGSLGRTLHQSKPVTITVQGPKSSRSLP
Procedure: (§1) Each altered antibody was analyzed for its interaction with each Fcγ receptor prepared above using Biacore T100 (GE Healthcare Japan Corp.), Biacore T200 (GE Healthcare Japan Corp.), Biacore A100, or Biacore 4000. The running buffer used was HBS-EP+ (GE Healthcare Japan Corp.). The assay temperature was set to 25° C. The sensor chips used were chips prepared by immobilizing Protein L (ACTIGEN or BioVision) onto Series S Sensor Chip CM5 (GE Healthcare Japan Corp.) or Series S Sensor Chip CM4 (GE Healthcare Japan Corp.) by the amine coupling method.
(§2) In order to calculate the KD value of each altered antibody for FcγR, kinetic analysis was conducted according to the following method: first, the antibody of interest was captured onto any of these chips and allowed to interact with mFcγR diluted with a running buffer. For the obtained sensorgram, the assay results were globally fit into the 1:1 Langmuir binding model using Biacore Evaluation Software to calculate an association rate constant ka (L/mol/s) and a dissociation rate constant kd (1/s). From these values, the dissociation constant KD (mol/L) was calculated.

[2] = target: T2, mouse FcγRIII extracellular domain with C-terminal His tag (mouse, UniProt P08508 31-215); assay: SPR Biacore T200
T2 construct: Made on the basis of NCBI NP-034318.2; also called mFcγRIII; mFcgRIII
T2 chain: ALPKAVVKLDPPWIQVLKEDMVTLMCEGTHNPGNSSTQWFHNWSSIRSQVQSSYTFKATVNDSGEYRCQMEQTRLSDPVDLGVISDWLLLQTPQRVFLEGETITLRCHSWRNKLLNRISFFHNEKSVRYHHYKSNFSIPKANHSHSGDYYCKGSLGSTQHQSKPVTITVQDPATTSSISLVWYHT
Procedure: as §1, §2

[3] = target: T1, mouse FcγRII extracellular domain with …; assay: SPR Biacore T200; KD mFcγRIII / KD mFcγRII
Procedure: as §1, §2

Row | Binder | Kd [1] [nM] | relative mFcγRII-binding activity (mIgG1 = 1) [1] | Kd [2] [nM] | relative mFcγRIII-binding activity (mIgG1 = 1) [2] | I/A (mFcγRII selectivity) [3] | relative I/A (mFcγRII selectivity) (mIgG1 = 1) [3]
1 | B1 | 0.782 | 268 | 24.6 | 11.5 | 31.4 | 23.4
2 | B2 | – | 71.8 | – | 3.9 | – | 18.2
3 | B3 | – | 134 | – | 7.5 | – | 17.8
4 | B4 | – | 93.5 | – | 5.7 | – | 16.5
5 | B5 | – | 159 | – | 6.2 | – | 25.6
6 | B6 | – | 78.1 | – | 4.2 | – | 18.7
7 | B7 | – | 125 | – | 6.3 | – | 19.8
8 | B8 | – | 45.8 | – | 3.5 | – | 13
9 | B9 | – | 106 | – | 5.4 | – | 19.6
10 | B10 | – | 152 | – | 7.9 | – | 19.2
11 | B11 | 0.784 | 268 | 19.5 | 14.5 | 24.9 | 18.6
12 | B12 | – | 89.9 | – | 5.6 | – | 16
13 | B13 | – | 154 | – | 8.2 | – | 18.7
14 | B14 | – | 172 | – | 9.3 | – | 18.6
15 | B15 | – | 127 | – | 6 | – | 21.3
16 | B16 | 0.707 | 297 | 15.8 | 17.9 | 22.3 | 16.6
17 | B17 | 0.747 | 281 | 25.9 | 10.9 | 34.7 | 25.9
18 | B18 | 0.817 | 257 | 19.5 | 14.5 | 23.9 | 17.8
19 | B19 | 0.757 | 277 | 26.2 | 10.8 | 34.6 | 25.9
20 | B20 | – | 114 | – | 4.1 | – | 27.7

— patent publication US20150203577A1 (Chugai, published 2015)
